The source of these data is patent publication US20250297232A1, “BACTERIAL MYELOPEROXIDASE-CATALASE AND APPLICATIONS THEREOF” (priority 2022, published 2025).

Assay [1] in a line: Steady-state kinetics by stopped-flow, NaSCN (hypothiocyanate formation, 240 nm). It counts as biochemical. Particulars: for activity in presence of SCN^− (NaSCN range), in words / k2: 300 nM enzyme, 79 μM H2O2; for substrate specificity: from steady-state NaSCN, NaBr and NaCl ranges; for k2: NaSCN range, linear increase of kss. On the procedure: (§1) pH- and temperature-dependent studies were carried out for each substrate.
(§2) These temperatures were reached by using a stopped-flow coupled to a cryostat.
(§3) For temperature and pH measurements, RbMPO was set at the same concentration as in the determination of steady state kinetics parameters.

A short description of assay [2]: Heme reconstitution of apo wt and mutated RbMPOs (tryptophan fluorescence quenching). Particulars: 1 μM enzyme; for k2: heme reconstitution of apo enzyme, 50 mM sodium phosphate pH7.5, 25° C. It counts as binding. The method, then: Sample dilutions were performed in a 50 mM pH7.5 sodium phosphate buffer.
Assay [3] is described as follows: Chlorination activity with APF probe, NaCl range. It counts as biochemical. Particulars: linear increase of kss, 1 μM RbMPOs, 79 μM H2O2, 10 μM APF. An excerpt:
The chlorination activity of myeloperoxidases can be determined using the aminophenyl fluorescein (APF) probe. One can indeed detect the oxidation of APF (non-fluorescent) by HOCl into fluorescein, a fluorescent molecule that is detectable at λex=485 nm and λem=525 nm. According to such test, the fluorescence measured is proportional to the quantity of fluorescein, which itself is proportional to the quantity of HOCl produced by the myeloperoxidase.
Measurements of chlorination activity were herein performed in Corning 384-well clear-bottom (flat-bottom) plates with a reaction volume of 20 μL, in triplicate at 37° C., and in a 50 mM NaPi buffer at pH7.5. […] A 10 to 30 minutes kinetic was performed for each range value and the fluorescence intensity was compared to that of the standard fluorescein range. Thus, the measured fluorescence is proportional to the amount of fluorescein, which in turn is proportional to the amount of HOCl produced by the RbMPOs.
The slopes were measured at the onset of the reaction in order to be in initial velocity. From these values, it was possible to calculate the kss with the following equation: […]
where slopes in FI.pmoles^−1 corresponds to the slope of the fluorescein standard range: 2.95 10^6+1.13 10^5.

The nature of assay [4]: Steady-state kinetics by stopped-flow, NaBr (Tau-NHBr formation, 289 nm). It counts as biochemical. Particulars: 300 nM enzyme, 79 μM H2O2; for kss/[Br^−]: NaBr range, linear (k2). On the procedure:
as §1, §2, §3

The subject of a further assay is E. coli ATCC 25922. Nature of the assay: Microbicidal activity: counting colonies on Petri dishes. The class given is cell-based. Particulars: 1 h contact with 1.10^6 CFU/mL, 25 mM SCN^−, pH7.4; enzyme alone: wt RbMPO 300 nM or GOxaspniger 25 nM. The method, then:
10 mL of TSB medium (pH7.4) was inoculated with a freshly obtained colony of E. coli ATCC 25922, and the culture was incubated at 37° C. and 190 rpm overnight. In the morning, 25 mL of TSB medium were inoculated with the previous day's pre-culture to obtain an OD620 nm of 0.07 at TO. When the bacterial culture reached the exponential phase, the bacterial solution was diluted 10-fold in TSB in order to reach 1.10^6 CFU/mL. This dilution was then contacted with the enzyme solution for 1 hour (in a final volume of 1 mL). Further dilutions were then made (10^−1, 10^−4, 10−5, 10^−6). 100 μL of these solutions were spread on a Petri dish containing TSB agar medium and placed at 37° C. overnight. The next day, the surviving colonies were counted and the number of CFU/mL was calculated using the formula below: […]

Changes are numbered by the printed parent chain. Numbers in names are those of the source. Entries after “also recorded” stand apart in the source; their conditions may differ.

B1: H407A: RbMPO with active site mutation H407A, generated by site-directed mutagenesis (protein)
chain: MLFWSKRTRKHPGRKRRRLRSEQLESRQLLAADFGGYRHNIYDAEDVNDDGRVSAIDALLVINAMTSETSRDENVFTDVNGDGRRSALDALRVINRIERGDVFPIDTSGDEDLNTLLPEMPSEVRSIDGSGNNPNDHLWGSVGQRLIRMAPAAYGDGISTLAGANRPSAREVSNVLSAMNTSQVLNDRGLSAFVYVWGQFIDHDLGLTESDEHGEAIDISVPEGDLWFDPMGSGEAVIPMTRTPIADGTGTSVGNPAQQFNQITAFIDGSMVYGSDAATAERLRTFAGGRLAISDNGLLPMDESGMVIAGDVRASENVGLTAIQTLFVREHNRLADEIFAADPEATDEEIYQRARLVVASLIQSITYNEFLPALLGQRAMDSYRGYDASVNPGIANEFSTAAFRLGASTLRDEVGFMSNDGRESKDEMELKDAFFHASMLEETGIDSLLKFDASVQAQEIDLAVVDSLRNFLFGPPGAGGLDLVAMNIQRGRDHGLSDYNTTRQAYGLDRVETFDQITGDVELQQKLASLYGTVDNIDLWVGLMAEDHQHDASVGELTGLIIADQFQRTRDGDRFFYKNVLTDSEVESIERSTLADLIERNTSVDGLQENVFFMQVELRGRVILASSIPPNTMPSEVREEEIRGVSGMAIELIDASGKLVDSTVSDQHGNYRFRALSETGDYQVRLSESGEAMDVLVAHGAERIRGLDFIVLA
Regarding B1, in assay [1], the “activity in presence of SCN^− (NaSCN range), in words” value is listed as “not active; also recorded: scatter plot” and the substrate specificity entry is listed as “greater specificity for Br^− than for SCN^−”. This molecule also returned a k2 in assay [2] of 1320 ± 18.9 M⁻¹ s⁻¹.

B2: E316A: RbMPO with active site mutation E316A, generated by site-directed mutagenesis (protein)
chain: B1 chain with E316A, A407H
In the case of B2, the k2 in assay [1] is listed as 1936+374 M^−1 · s^−1; in assay [3] it was “no catalytic constant could be determined; also recorded: scatter plot”; in assay [2], 418+34 M−1 · s−1. Also, the substrate specificity entry in assay [1] was “active only for SCN^−”. Also, in assay [4], the “activity with Br^− (NaBr range), in words” value is on record as “lack of RbMPO activity”.

B3: N317M: RbMPO with active site mutation N317M, generated by site-directed mutagenesis (protein)
chain: B1 chain with N317M, A407H
On to B3, for which, in assay [1], the k2 was 1074 ± 53 M⁻¹ s⁻¹ and the substrate specificity result is “higher specificity for SCN^− than Br^−”.

B4: H203A: RbMPO with active site mutation H203A, generated by site-directed mutagenesis (protein)
chain: B1 chain with H203A, A407H
As to B4, the substrate specificity result in assay [1] is reported as “higher specificity for SCN^− than Br^−”. For the same molecule, the k2 result in assay [3] was “no catalytic constant could be determined; also recorded: scatter plot”; in assay [2] it was 1840 ± 167 M⁻¹ s⁻¹. In assay [4], the “kss/[Br^−]” value came to 73.94 ± 15.07 M⁻¹ s⁻¹.

B5: Q199A: RbMPO with active site mutation Q199A, generated by site-directed mutagenesis (protein)
chain: B1 chain with Q199A, A407H
B5: in assay [1], the “activity in presence of SCN^− (NaSCN range), in words” value is “not active” and the substrate specificity result is “only active for Br”. The molecule further had a k2 in assay [2] of 1720 ± 133 M⁻¹ s⁻¹. The “kss/[Br^−]” value in assay [4] worked out at 78.19 ± 22.00 M⁻¹ s⁻¹.

B6: D202A, E316A: double mutant of RbMPO with active site mutations D202A and E316A (protein)
chain: B1 chain with D202A, E316A, A407H
In the case of B6, in assay [1], the substrate specificity result was “active only for SCN^−”. The Kd (commonly a measure of binding affinity in units of concentration) in assay [2] (heme reconstitution, saturation of active site by heme, pH7.5, 25° C.) turned out to be 10.9 µM. Further, the “activity with Br^− (NaBr range), in words” value in assay [4] is “lack of RbMPO activity”.

B7: D202A: RbMPO with active site mutation D202A, generated by site-directed mutagenesis (protein)
chain: B1 chain with D202A, A407H
For B7, in assay [1], the substrate specificity result is “higher specificity for SCN^− than Br^−”.

B8: GOxaspniger: glucose oxidase isolated from Aspergillus niger (e.g. CAS number: 9001-37-0) (protein, UniProt P13006 17-605, looked up)
Glucose oxidase: LPHYIRSNGIEASLLTDPKDVSGRTVDYIIAGGGLTGLTTAARLTENPNISVLVIESGSYESDRGPIIEDLNAYGDIFGSSVDHAYETVELATNNQTALIRSGNGLGGSTLVNGGTWTRPHKAQVDSWETVFGNEGWNWDNVAAYSLQAERARAPNAKQIAAGHYFNASCHGVNGTVHAGPRDTGDDYSPIVKALMSAVEDRGVPTKKDFGCGDPHGVSMFPNTLHEDQVRSDAAREWLLPNYQRPNLQVLTGQYVGKVLLSQNGTTPRAVGVEFGTHKGNTHNVYAKHEVLLAAGSAVSPTILEYSGIGMKSILEPLGIDTVVDLPVGLNLQDQTTATVRSRITSAGAGQGQAAWFATFNETFGDYSEKAHELLNTKLEQWAEEAVARGGFHNTTALLIQYENYRDWIVNHNVAYSELFLDTAGVASFDVWDLLPFTRGYVHILDKDPYLHHFAYDPQYFLNELDLLGQAAATQLARNISNSGAMQTYFAGETIPGDNLAYDADLSAWTEYIPYHFRPNYHGVGTCSMMPKEMGGVVDNAARVYGVQGLRVIDGSIPPTQMSSHVMTVFYAMALKISDAILEDYASMQ
With B8, the surviving bacteria in the assay with E. coli ATCC 25922 is recorded as 1,015,000±21,213 CFU/mL.
